Data on 2 molecules can be found in patent US20220340678A1 (MURAL ONCOLOGY, published 2022).

For assay [1], the target named is T1, Recombinant mouse uPAR-Fc (R&D Systems, Cat. No. 531-PA-100) (mouse, UniProt P35456 24-297, limits assumed).
T1 construct: not shown: Fc of the bought fusion (captured with the human antibody capture kit); not described
T1 sequence (looked up): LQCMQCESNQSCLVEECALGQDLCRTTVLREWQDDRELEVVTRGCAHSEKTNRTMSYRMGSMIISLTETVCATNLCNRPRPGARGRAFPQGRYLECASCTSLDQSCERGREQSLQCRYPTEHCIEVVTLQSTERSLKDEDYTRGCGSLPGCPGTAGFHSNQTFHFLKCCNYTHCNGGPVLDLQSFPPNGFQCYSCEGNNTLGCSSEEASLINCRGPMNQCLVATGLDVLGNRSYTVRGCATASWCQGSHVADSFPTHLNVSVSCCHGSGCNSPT
Briefly: SPR (Biacore), mouse uPAR-Fc captured on anti-human antibody chip.

Assay [2] deals with T1, Recombinant mouse uPAR-Fc (R&D Systems, …). In words: SPR (Biacore), mouse uPAR-Fc captured on chip; Table 32 prints 0.15.
Assay [3] has as its target T2, biotinylated human uPAR (human, UniProt Q03405 23-303, limits assumed, biotinylated (site not stated)). Briefly: BLI (Octet) competition on biotinylated human uPAR; competitor (first antibody): M5. A general note: In BLI a coated tip is dipped into the sample, and binding shifts an interference pattern.
In assay [4] the target is T2, biotinylated human uPAR. In words: BLI (Octet) competition on biotinylated human uPAR; competitor (first antibody): M1.
For assay [5], the target named is T2, biotinylated human uPAR. In words: BLI (Octet) competition on biotinylated human uPAR; competitor (first antibody): ATN-368 (ATN-658).
The target in assay [6] is T3, histidine-tagged human uPAR (Sino#10925-H08H) (human, UniProt Q03405 23-303).
T3 construct: also called uPAR-His
In words: BLI (Octet), antibody on anti-mouse Fc sensor, uPAR in solution.

Assay [7] addresses T2, biotinylated human uPAR. In words: BLI (Octet) on biotinylated human uPAR; row 'None': no first antibody.
Assay [8] concerns the target T4, Human uPAR DIII domain HisAvi Tag (human, biotinylated (site not stated)).
T4 chain: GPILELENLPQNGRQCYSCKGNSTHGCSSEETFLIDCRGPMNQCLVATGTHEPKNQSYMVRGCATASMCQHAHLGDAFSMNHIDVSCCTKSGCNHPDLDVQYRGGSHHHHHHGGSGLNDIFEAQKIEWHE
In words: BLI (Octet), biotinylated domain on SA sensor, antibody 200 nM.

Assay [9] addresses Human uPAR DII-DIII domain HisAvi Tag (human, biotinylated (site not stated)). Described as above.
Assay [10] has as its target T3, histidine-tagged human uPAR …. Briefly: BLI (Octet), uPAR on sensor, antibody in solution (avidity).
Assay [11] concerns the target T5, human uPAR expressed on HEK293 cells (human, UniProt Q03405 23-305).
T5 construct: whole, on cells; also called Hu-uPAR
In words: flow cytometry, HEK293 cells expressing human uPAR, 100 nM uPA present. For orientation: A flow cytometer gives signals particle by particle.

B1: Mouse uPA-ATF His6 (ligand)
chain: GSVLGAPDESNCGCQNGGVCVSYKYFSRIRRCSCPRKFQGEHCEIDASKTCYHGNGDSYRGKANTDTKGRPCLAWNAPAVLQKPYNAHRPDAISLGLGKHNYCRNPDNQKRPWCYVQIGLRQFVQECMVHDCHHHHHH
notes: also called 104
In general, koff refers to a measure of how fast the partners let go of each other. As a reminder, the kon is the rate constant with which the complex forms. For B1, in [1], the Kd was 0.15 nM, the koff is 0.00032 s⁻¹ and the kon worked out at 2.2e+06 M⁻¹ s⁻¹. In assay [2], the Kd amounted to 0.14 nM.

B2: M1 (antibody, V domains shown)
VH: EVQLQQSGAELVRPGASVKLSCTASGFNIKDEYINWVKQRPEQGLEWIGWIDPENGDTEYASKFQGKATITADTSSNTAYLQLSSLTSEDTAVYYCTGGNYVGWFPYWGQGTLVTVSA
VL: QIVLTQSPAIMSASPGEKVTMTCSASSSVSYMHWYQQKSGTSPKRWLYDTSKLASGVPARFSGSGSGTSYSLTISSMEAEDAATYYCQQWSSNPPYTFGGGTKLEIK
notes: Mouse hybridoma antibody; also called anti-uPAR antibody M1; parental M1
The EC50 is the concentration needed to bring the measured effect to its halfway point. High values mean a less potent agent, low ones a more potent agent. With B2, the “response in competition assay” value is 0.365 with biotinylated human uPAR [3], -0.0441 with biotinylated human uPAR [4], -0.0232 with biotinylated human uPAR [5] and 0.305 in the assay with biotinylated human uPAR [7]. Further, the Kd in assay [6] is 0.511 nM; in [10] it was below 1 pM. Further, the koff in assay [6] is 0.00034 s⁻¹; in assay [10] it was below 1e-07 s⁻¹. Moreover, the kon in assay [6] was 664000 M⁻¹ s⁻¹; in assay [10] it was 448000 M⁻¹ s⁻¹. Moreover, the binding result in assay [8] and in [9] was “binds” each time. Besides, the EC50 in assay [11] was 0.66 nM.
